This assay addresses E. coli lipoic acid ligase (LplA) variant A48N on the W37V background (E. coli). Put plainly: SEC-SAXS; SEC-SAXS of purified LplA variant with lipoyl-AMS; DENSS ab initio envelope fitted with the major conformer; high protein concentrations required for SAXS; dimer model generated by AlphaFold3.

What is called stoichiometry N is the number of molecules, sites or subunits per partner or assembly.

For “E. coli lipoic acid ligase (LplA) variant A48N on the W37V background (enzyme)”, the stoichiometry N was 2.

The values above are taken from paper doi:10.1101/2025.05.03.652001.
